# Laboratory results taken from the DeepSol protein solubility set.
# Experiment: soluble on expression in E. coli; label from the status in PepcDB or PDB records
row,Sequence,soluble on expression in E. coli
1,MSNMEPPPPMFPRSRIYHSYYSEEKTFSAPSANSQQGTQLPSKVYNKGLKDNDIEGLLSSLSIDELEDLNNDFDPDNSMLPPSQRCRDQTDKEPTGPYKRDNLLKFLEDKAKTEKDWEDVCPYTPGQKRGKVYDSDSGRNSEEPENGKMEMPIEIDLDDDEEELECALVTAPEKDLVDLAGILGMHNVLNQPQYYNALKGKTQDESTGTTFNGIMQSYVPRIVPDEPDNDTDVESCINRLREDDTDLKEVNINNMKRVSKERIRSLIEAACNSKHIEKFSLANTAISDSEARGLIELIETSPSLRVLNVESNFLTPELLARLLRSTLVTQSIVEFKADNQRQSVLGNQVEMDMMMAIEENESLLRVGISFASMEARHRVSEALERNYERVRLRRLGKDPNV,soluble
2,MSEAPATEHGQCLCGAVGFTATLGAREFGVCHCSMCRRWSGGAFMAVECTDIAFENEQRLGVYSSSKWGERCFCKNCGSTLVWRSKDGKHFAVSLQAFDKPSSFTFVQQIFTDEKPSSYSFAQTTQNMTGPEFIAMITSAEH,not soluble
3,MNAPRCLRRLLERQWRQGGWLSTLLRPLAALTGLVVARKRNAYLTGARAAWRAPVPVVVVGNIYVGGTGKTPVVIEVVRQLQARGWTPGVVSRGYGVDVGAAPRVGQGQLAAADYGDEPALIARATGAAIAVHPHRPRAVQALLRAHPGVDVVVSDDGLQHLALARDVEIVVQDERGVGNGRLLPAGPLREPAQRLADVDAIVTNAGRPRAAAAPAAGAPRQLAMWLEPTHAQRVTDGATRTLADLAALPPARLAAAAGIGNPARFFQTLEQAGIRPAHTLALPDHYAYAQSPFTALDADLILVTAKDAIKCAALDDPRLWAVQVGTRLSDPDFGDWLSATLRARQPKLAAALEHHHHHH,not soluble
4,FLETLAKVKKIFIDKTGTLTQKEVLLKEKIIYEEFDGRLLKSLLKVREHLAHSAILKSLDGDEVSLEKIEFFAHGLKASYQNETLLVGSLKFLGSMGVDIPMKESANIMVGFAKNETLCALFILEERLKANAKEVVQALQNKGLELEILSGDNESSVKECAKKLGISNYHAHLTPEDKAQTISSYKGVCAMVGDGNNDALALKQASVSLGFEKSALSKSACDILLLEEDLSLLKKAFDNAQKVYQVVLQ,not soluble
5,SVDYVFNKVMQPHQQMRIRVALGIEDDLRGGGYNVDQSKIAIGSGGFMGKGFLKGTQTKLKYVPEQDTDFIFCTVGEEQG,not soluble
6,MSLAIIEEARSGQITDEMKEISKLEGIPVEKVRNRISECKIILIRNAKYPSKKLVPIGKGLTTKVNINIGTSDEVVNLQMELEKVKVANRWGDTLMDLSTGGDLDDIRREIIRASELPVGTVPVYQVFIESFKKKSGGAYFTEDELLSTVEKHLKDGVAFMTIHAGITKELAIRALKSNRIIPIVSRGGDMIAGWMIHNNSENPYRKHWGYLLEMFKEYDAVISLGDALRPGATGDAHDEFQVGELLETARLVKSALKEGVQVMVEGPGHVPLNEIAWDVKLMKKLTGGVPYYVLGPLPIDVGAPYDHIASAIGAAISSAAGADLLCYLTPAEHLGLPTVKQVEEGAIAYRIAAHAGDVVKLGRRVRKWDDEVSYYRGKLEWDNMISRLIDPQRAYQVYTQFGIPKVKACTMCGGYCPMMWAMDQVRKIGSSSSLEGHHHHHH,soluble
7,MGSSHHHHHHSSGRENLYFQGHMNRTLYTLLFHLGLPLVALRLWWRARQAPAYAKRIGERFSLSLPEVPPGGIWVHAVSVGESIAAAPMVRALLERHPQLPVTVTCMTPTGSERIRALFGEQVRHCYLPYDLPWAAARFLDRVRPRLAVIMETELWPNHIHACAVRGIPVALANARLSERSARGYARFAGLTRPMLAELSWIAVQTEAEAERFRRLGARPECVSVTGSIKFDLRIDPQLPLAAAALREEWDATARPLWIAASTHAGEDEIVLAAHRRLLETRPDALLILVPRHPERFAGVHELCRREGFATVRRSGGEPVARATQVLLGDTMGELLFLYALADIAFVGGSLVPNGGHNLLEPAALGKPVFAGPHLFNFLDIAAQLRDAGALLEVTDAGELCDGLARLWAQPEVATAMATAGEKVLRNNQGALERLLAGLARLLGRGG,soluble
